B1: Guanyl-specific ribonuclease T1, P00651 (parent)
chain: MMYSKLLTLTTLLLPTALALPSLVERACDYTCGSNCYSSSDVSTAQAAGYQLHEDGETVGSNSYPHKYNNYEGFDFSVSSPYYEWPILSSGDVYSGGSPGADRVVFNENNQLAGVITHTGASGNNFVECT

Variants of: B1
Details: Aspergillus oryzae (strain ATCC 42149 / RIB 40); pH 5; Thermal; DSC; Sodium borate-NaOH 10 mM; NaCl 80 mM; reversible: yes; structure 1RN1; whole UniProt chain shown

Variant | Tm [°C] | heat capacity change of unfolding [kcal/mol/K] | unfolding enthalpy (calorimetric) [kcal/mol] | unfolding enthalpy (van 't Hoff) [kcal/mol]
Q51K | 61.2 | 1.14 | 122 | 115

Same assay, conditions: Aspergillus oryzae (strain ATCC 42149 / RIB 40); pH 6; Thermal; DSC; Sodium borate-NaOH 10 mM; NaCl 80 mM; reversible: yes; structure 1RN1; whole UniProt chain shown

Variant | Tm [°C] | heat capacity change of unfolding [kcal/mol/K] | unfolding enthalpy (calorimetric) [kcal/mol] | unfolding enthalpy (van 't Hoff) [kcal/mol]
Q51K | 56.9 | 0.99 | 112 | 110

Same assay, conditions: Aspergillus oryzae (strain ATCC 42149 / RIB 40); pH 6.5; Thermal; DSC; Sodium borate-NaOH 10 mM; NaCl 80 mM; reversible: yes; structure 1RN1; whole UniProt chain shown

Variant | Tm [°C] | heat capacity change of unfolding [kcal/mol/K] | unfolding enthalpy (calorimetric) [kcal/mol] | unfolding enthalpy (van 't Hoff) [kcal/mol]
Q51K | 54 | 1.19 | 109 | 109

Same assay, conditions: Aspergillus oryzae (strain ATCC 42149 / RIB 40); pH 8.6; Thermal; DSC; Sodium borate-NaOH 10 mM; NaCl 80 mM; reversible: yes; structure 1RN1; whole UniProt chain shown

Variant | Tm [°C] | heat capacity change of unfolding [kcal/mol/K] | unfolding enthalpy (calorimetric) [kcal/mol] | unfolding enthalpy (van 't Hoff) [kcal/mol]
Q51K | 46.6 | 1.15 | 97.6 | 102

Same assay, conditions: Aspergillus oryzae (strain ATCC 42149 / RIB 40); pH 9.7; Thermal; DSC; Sodium borate-NaOH 10 mM; NaCl 80 mM; reversible: yes; structure 1RN1; whole UniProt chain shown

Variant | Tm [°C] | heat capacity change of unfolding [kcal/mol/K] | unfolding enthalpy (calorimetric) [kcal/mol] | unfolding enthalpy (van 't Hoff) [kcal/mol]
Q51K | 44 | 1.38 | 94 | 105
